Assay results taken from the RNAGym collection of RNA variant scans (doi:10.1093/nar/gkz1192).

B1: CPEB3 Ribozyme (parent)
chain: UAACAGGGGGCCACAGCAGAAGCGUUCACGUCGCAGCCCCUGUCAGAUUCUGGUGAAUCUGCGAAUUCUGCUGUAUAUCUC

Variants of: B1
Assay: self-cleavage, relative activity (ratio to wild type); higher = more cleavage; in vitro, sequencing
Summary of the method: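 Barcoded CPEB3 ribozyme mutants, produced by rounds of error-prone PCR, self-cleaved while being transcribed with T7 RNA polymerase for 5 hours at 37°C and during a subsequent 15 min DNase I step before EDTA was added. Sequencing of template-switched cDNA on Illumina gave cleaved and total reads, and DNA sequencing assigned barcodes to variants. Each variant's relative activity is its cleaved/total read fraction divided by the unmutated ribozyme's fraction, averaged across three batches. A variant needed a minimum of 5 reads.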

Variant	self-cleavage
U31A U48G	0.16
U31A U48A	0.13
U31A U48C	0.29
U31C C50U	0.82
U31C C50A	0.67
U31A C40U	0.27
G30C U76A	0.17
G30U U60C	0.15
U31C G33A	0.21
G30A G61C	0.24
G30C U48C	0.16
U31C U43A	1.03
U31C U43C	0.49
U31C U43G	0.36
U31A C50U	0.41
U31C C40A	0.2
U31C C40U	0.49
U31A C37U	0.16
U31A A65G	0.36
U31A A65U	0.37
G30C G33U	0.19
G30U A64G	0.23
U31C G53A	0.91
U31C G53U	1.06

Variant	self-cleavage
U31C U60A	0.34
U31C U60G	0.15
U31C U60C	0.29
G30C U78G	0.2
G30C U78C	0.38
G30U U49C	0.42
G30U U49A	0.35
U31C C62G	0.14
U31C C62U	0.24
U31C C62A	0.23
G30U U76A	0.5
G30U U76C	0.39
G30A U66A	0.23
G30A U66C	0.32
U31A C59A	0.17
U31A C59U	0.37
U31A C59G	0.19
G30A G73U	0.46
G30A U51A	0.15
G30A U51G	0.1
U31A A45G	0.35
U31A A45U	0.32
G30A G63U	0.13
G30U U41A	0.16

Variant	self-cleavage
G30U U41C	0.27
G30U U41G	0.13
U31A A56U	0.39
U31A A56G	0.48
U31C C34U	0.24
U31C C34A	0.15
U31A G63A	0.39
U31A U54G	0.55
U31A U54A	0.55
U31A U54C	0.5
G30A U80C	0.41
G30A U80A	0.22
G30U U51C	0.16
G30U U51A	0.11
U31A G46U	0.12
U31A G46C	0.2
U31A U49C	0.22
U31A U49A	0.41
U31A A47U	0.29
U31A A47G	0.54
G30A U74A	0.29
G30C U43C	0.25
U31A G36U	0.1
U31A G42A	0.18

Variant	self-cleavage
U31A G42C	0.53
U31A A75U	0.61
U31A A75G	0.47
U31A A35C	0.27
U31A A35U	0.3
U31A A35G	1.25
U31C U58G	0.39
U31C U58A	0.31
U31C U58C	0.33
G30C U49C	0.08
U31C C81U	1.14
U31C C81G	0.55
U31A A77U	0.51
U31A A77G	0.32
U31A U43C	0.37
U31A U43G	0.33
U31A U43A	0.7
U31A G61C	0.24
U31A G61A	0.37
U31C C68A	0.28
U31C C68U	0.75
U31A U78A	0.41
U31A U78G	0.46
U31A U78C	0.46

Variant	self-cleavage
G30U U80C	0.17
U31C U67C	0.26
U31C U67A	0.34
G30C U51C	0.19
U31C C39A	0.18
G30A U67C	0.18
G30A U67A	0.22
G30C A57G	0.25
G30C C62U	0.06
G30A U58A	0.09
G30A U58C	0.16
U31C U72A	0.5
U31C U72G	0.46
U31C U72C	0.97
G30C	0.28
G30U	0.25
U31A U69G	0.27
U31A U69C	0.3
U31A U69A	0.29
U31A U72C	0.66
U31A U72A	0.41
U31A C32G	0.12
U31A C32U	0.13
U31A U74G	0.84

Variant	self-cleavage
U31A U74A	0.74
U31A U74C	0.77
U31A C38U	0.53
G30C C40U	0.23
U31A C79U	0.48
G30U G42A	0.23
G30U A56G	0.26
U31A G73C	1.08
U31A G73A	1.04
U31A U76C	0.48
G30A G46A	0.15
U31A C68U	0.54
U31C U78G	0.84
U31C U78A	0.86
U31C U78C	0.87
G30U U31C	0.43
U31C U54A	0.92
U31C U54G	0.68
U31C U54C	0.8
U31C G73A	1.26
G30A U41G	0.4
G30A U41A	0.14
G30A U41C	0.22
U31C U41A	0.29

Variant	self-cleavage
U31C U41C	0.82
U31C U41G	0.34
G30C A75G	0.12
U31C G46A	0.15
U31C G46U	0.23
U31A G33A	0.24
U31A G33U	0.13
G30C U54A	0.22
U31C A57G	0.75
U31C A57C	0.49
U31C A57U	0.47
U31C U51G	0.89
U31C U51C	0.78
U31C U51A	0.89
U31A C44U	0.23
U31A	0.56
U31G	0.5
U31C	0.87
U31C A47C	0.31
U31C A47U	0.4
U31C A47G	0.8
G30U U66A	0.13
G30C G73A	0.11
G30C A64U	0.2

Variant	self-cleavage
U31A C81U	0.58
U31C C44U	0.26
U31C C44A	0.4
U31C C44G	0.31
U31C C32A	0.31
U31C C32U	0.22
U31C G61C	0.14
U31C G55A	0.78
U31C G55U	0.76
U31C A45C	0.22
U31C A45G	0.52
U31C A45U	0.32
U31C C59U	0.54
U31C C59A	0.29
G30U U78C	0.09
G30U A47G	0.22
G30A G36U	0.44
G30A G36A	0.4
G30C A65C	0.11
G30C A65G	0.11
G30C A65U	0.3
G30U A57G	0.13
G30U A57U	0.14
G30A C71U	0.18

Variant	self-cleavage
U31A U60A	0.32
U31A U60G	0.2
U31A U60C	0.25
G30A U72A	0.2
G30A U72C	0.33
G30C U41C	0.28
U31A G52C	0.5
U31A G52A	0.69
G30A U54C	0.43
U31A G53A	0.53
U31A G53C	0.51
U31A C62A	0.28
U31A C62U	0.26
G30A G52A	0.21
U31C U76G	0.8
U31C U76C	0.88
U31C U76A	0.77
G30U U69A	0.1
G30U A65G	0.25
G30C A45U	0.09
G30C A45C	0.34
G30A U76A	0.13
G30A U76C	0.26
U31A U67C	0.2

Variant	self-cleavage
U31A U67A	0.34
U31A U58C	0.36
U31A U66C	0.26
G30A G70A	0.39
U31C A64G	0.64
U31C A64U	0.31
U31C A64C	0.14
U31A G55A	0.41
G30U A45G	0.28
G30U A35G	0.05
G30C U67A	0.18
G30C U67G	0.09
U31C U48C	0.37
U31C U48A	0.39
G30U G52A	0.17
U31A U41C	0.51
U31A U41G	0.29
U31A U41A	0.33
U31C C38A	0.33
U31C C38U	0.98
U31C C38G	0.16
G30A G55A	0.2
G30A U49C	0.16
G30A U49G	0.22

Variant	self-cleavage
G30A U49A	0.1
G30A C68U	0.12
U31A U80A	0.61
U31A U80G	0.55
U31A U80C	0.66
U31C A75G	0.77
U31C A75U	0.87
U31C A75C	1.1
U31C A56G	0.67
U31C A56U	0.47
G30A U43C	0.24
G30A U43A	0.24
U31C A35C	0.46
U31C A35U	0.32
U31C A35G	1.21
G30U C38U	0.26
G30A U78A	0.53
G30A U78C	0.24
G30U C79G	0.12
G30U A77G	0.16
G30U G70C	0.15
U31C A77G	0.94
U31C A77U	0.86
G30U C40U	0.2

Variant	self-cleavage
U31C U80C	0.96
U31C U80G	1.13
U31C U80A	1.01
G30A U69A	0.23
G30A U69G	0.19
G30A U69C	0.33
U31A U51G	0.33
U31A U51C	0.46
U31A U51A	0.59
U31A A64C	0.14
U31A A64G	0.39
U31A A64U	0.29
G30A U60A	0.08
G30A U60C	0.15
G30A U60G	0.34
U31C G36U	0.14
U31C G36A	0.13
U31C C79A	0.94
U31C C79U	1.1
G30U G33A	0.24
U31C C37U	0.46
U31C C37A	0.28
U31C G52A	1.06
U31C G52C	1.14

Variant	self-cleavage
U31C U69G	0.41
U31C U69C	0.31
U31C U69A	0.37
U31C G70A	0.25
U31C G70C	0.18
U31A C71A	0.17
U31A C71U	0.29
U31A C71G	0.19
U31C U66C	0.27
U31C U66A	0.28
U31C U66G	0.35
G30C U72G	0.16
G30C U72A	0.13
G30A U48G	0.14
G30A U48A	0.35
G30A U48C	0.27
U31C C71U	0.25
U31C C71G	0.23
U31A C34G	0.2
U31A C34U	0.23
G30U U54C	0.14
G30C U60A	0.13
G30C U60C	0.12
U31C U74G	1.23

Variant	self-cleavage
U31C U74C	1.18
U31C U74A	1.18
U31C U49A	0.5
U31C U49G	0.3
U31C U49C	0.23
G30A U31G	0.21
G30A U31A	0.32
G30A U31C	0.35
G30C U31C	0.26
G30C A56G	0.16
U31A C39U	0.34
G30U C62A	0.08
U31C A65G	0.35
U31C A65U	0.25
U31A A57G	0.53
U31C G42A	0.35
U31C G42U	0.13
U31C G63A	0.67
U31C G63U	0.8
G30U U72A	0.22
G30U U72G	0.15
G30U U72C	0.08
